Assay [1] addresses PCDGF cell surface receptors on the mink lung epithelial cell line CCL64 (mink). In words: Scatchard analysis of 125I-PCDGF binding to CCL64 cells, high affinity class.
Assay [2] shares this target. In words: Scatchard analysis of 125I-PCDGF binding to CCL64 cells, low affinity class.
The target of assay [3] is PCDGF receptor on breast cancer cells (MCF-7; AG-BC1). In words: PCDGF binding to AG-BC1 cells against MCF-7 cells; method not stated.

For “PC-cell-derived growth factor (PCDGF) (ligand)”, the Kd was found to be 0.043 nM in assay [1] and 3.9 nM in assay [2]. In assay [3], this substance returned a fold increase in binding against MCF-7 cells of 10 fold.

The values above are taken from patent publication US20080145369A1.
